B1: S. cerevisiae Abp1 (full length; SH3 domain 535-592 mutated) / Hua2 (parent)
chain 1: MALEPIDYTTHSREIDAEYLKIVRGSDPDTTWLIISPNAKKEYEPESTGSSFHDFLQLFDETKVQYGLARVSPPGSDVEKIIIIGWCPDSAPLKTRASFAANFAAVANNLFKGYHVQVTARDEDDLDENELLMKISNAAGARYSIQTSSKQQGKASTPPVKKSFTPSKSPAPVSKKEPVKTPSPAPAAKISSRVNDNNDDDDWNEPELKERDFDQAPLKPNQSSYKPIGKIDLQKVIAEEKAKEDPRLVQKPTAAGSKIDPSSDIANLKNESKLKRDSEFNSFLGTTKPPSMTESSLKNDDDKVIKGFRNEKSPAQLWAERKAKQNSGNAETKAEAPKPEVPEDEPEGEPDVKDLKSKFEGLAASEKEEEEMENKFAPPPKKSEPTIISPKPFSKPQEPVKAEEAEQPKTDYKKIGNPLPGMHIEADNEEEPEENDDDWDDDEDEAAQPPLPSRNVASGAPVQKEEPEQEEIAPSLPSRNSIPAPKQEEAPEQAPEEEIEEEAEEAAPQLPSRSSAAPPPPPRRATPEKKPKENPWATAEYDYDAAEDNELTFVENDKIINIEFVDDDWWLGELEKDGSKGLFPSNYVSLGN
chain 2: MQQTKFGKMYLDHDSVVEYSEDEIVEADRITLGYKKRLSMIENQMRHLLEDFSLDVQQIEPILADLQKYYDAFLQLLQKRNKSLQCKRSTHQPVPSPMNSQTSTNAKVNLSGKLMKFQLNSVQKFDEENILRILQNKIEFEHYFQIDKGKKQKVLLLAVYQCLNGPTRLHKVLNIEGIIHNNSIRTILGKQVSSSKWTVFLYDVKLVLLAHRQDVPNLETSKMIVRYGDLFPCALYFKDHTAY

Variants of: B1
Experiment: DHFR protein-fragment complementation in yeast (Abp1-DHFR F[1,2] x partner-DHFR F[3]), deep mutational scanning, second methotrexate selection vs reference
Conditions: with Hua2; S. cerevisiae, DHFR-PCA selection in liquid with methotrexate at 30 C, two 72 h selections (the score uses the second); reference = the pre-selection culture; not an affinity; value at the no-binding floor (a bound); scale: DMS score: mean over two replicates of log2(f_test/f_ref + 0.5)/ln 2, minus the synonymous-codon median

screen value | Variant
< -3.06 | chain 1 W570I
-3.01 | chain 1 W570Q
< -3.06 | chain 1 W570H
-3.01 | chain 1 S585W
< -3.06 | chain 1 S585Y
-2.99 | chain 1 S585F
-2.99 | chain 1 S585L
-3.03 | chain 1 S585D
-2.98 | chain 1 Y587E
-3 | chain 1 Y587G
< -3.06 | chain 1 Y587P
< -3.06 | chain 1 G578I
-3.01 | chain 1 G578W
< -3.06 | chain 1 G578P
< -3.06 | chain 1 I560P
-3.04 | chain 1 V554P
-3.02 | chain 1 N561L
-3.02 | chain 1 N561V
< -3.06 | chain 1 N561P
< -3.06 | chain 1 N561W
< -3.06 | chain 1 N561F
< -3.06 | chain 1 G581Y
< -3.06 | chain 1 G581H
< -3.06 | chain 1 G581Q
< -3.06 | chain 1 G581N
-3.01 | chain 1 G581K
-3.01 | chain 1 G581F

screen value | Variant
< -3.06 | chain 1 G581W
< -3.06 | chain 1 G581L
< -3.06 | chain 1 G581P
< -3.06 | chain 1 G581I
< -3.06 | chain 1 G581T
-3.02 | chain 1 G581E
< -3.06 | chain 1 G581M
< -3.06 | chain 1 T552W
-3.04 | chain 1 T552L
< -3.06 | chain 1 Y541P
< -3.06 | chain 1 E573P
-3.03 | chain 1 L574W
-3.03 | chain 1 L574F
< -3.06 | chain 1 L574D
< -3.06 | chain 1 L574E
-3 | chain 1 L582G
-3.01 | chain 1 L582T
-3.04 | chain 1 L582A
-2.99 | chain 1 L582D
-3.03 | chain 1 L582E
< -3.06 | chain 1 I562P
< -3.06 | chain 1 I562D
< -3.06 | chain 1 I562E
< -3.06 | chain 1 I562Q
-3.04 | chain 1 I562G
-3.03 | chain 1 I562Y
< -3.06 | chain 1 I562A

screen value | Variant
-3.03 | chain 1 I562K
< -3.06 | chain 1 I562H
< -3.06 | chain 1 I562R
< -3.06 | chain 1 F553E
< -3.06 | chain 1 F553W
-3.01 | chain 1 F553T
< -3.06 | chain 1 F553K
-3.03 | chain 1 F553A
< -3.06 | chain 1 F553P
< -3.06 | chain 1 F553R
< -3.06 | chain 1 F553H
< -3.06 | chain 1 F553D
< -3.06 | chain 1 F553N
< -3.06 | chain 1 F553Q
-3.04 | chain 1 F553G
-3.02 | chain 1 P584C
< -3.06 | chain 1 P584D
< -3.06 | chain 1 P584V
-3 | chain 1 P584F
< -3.06 | chain 1 P584M
< -3.06 | chain 1 P584K
-3.01 | chain 1 P584Q
< -3.06 | chain 1 P584E
-3.02 | chain 1 P584W
< -3.06 | chain 1 P584I
< -3.06 | chain 1 P584G

Same assay, conditions: with Hua2; S. cerevisiae, DHFR-PCA selection in liquid with methotrexate at 30 C, two 72 h selections (the score uses the second); reference = the pre-selection culture; value at the no-binding floor (a bound); scale: DMS score: mean over two replicates of log2(f_test/f_ref + 0.5)/ln 2, minus the synonymous-codon median

screen value | Variant
-3.04 | chain 1 E547R
< -3.06 | chain 1 S585Q
< -3.06 | chain 1 D568M
< -3.06 | chain 1 D568I
< -3.06 | chain 1 D568L
< -3.06 | chain 1 D568R
< -3.06 | chain 1 D568K
-3.01 | chain 1 D568Q
-2.99 | chain 1 D566F
< -3.06 | chain 1 D566C
< -3.06 | chain 1 D566S
-3.03 | chain 1 D566R
-3.01 | chain 1 Y541R
-2.99 | chain 1 N586R
